Article PMC3932107

Tests used:
[1] = molecular target: Alexa488-labeled γ-synuclein (human) (UniProt O76070); assay: photon counting histogram
[2] = molecular target: CPM-labeled γ-synuclein (human) (UniProt O76070); assay: other fluorescence titration

Substance: Alexa488-labeled γ-synuclein (from UniProt O76070 1-127) (natural protein)
- stoichiometry N [1]: 20

Substance: γ-synuclein, purified from E. coli, unlabelled (from UniProt O76070 1-127) (natural protein)
- Kd [2]: 5 nM
